Legend:
[1] = target: T1, human 4-1BB (human, UniProt Q07011 24-186, limits assumed); assay: BLI (Octet), binder on AHC sensor; antigen conditions not stated
T1 construct: Soluble antigen in Octet; construct not described

[2] = target: T2, human PD-L1 (human, UniProt Q9NZQ7 19-238); assay: as above
T2 construct: Soluble antigen in Octet; bought; also called human PD-L1 (Acro PD1-H5229)

[3] = target: T3, human CD3 (human, UniProt P07766 23-126; P04234 22-105); assay: BLI (Octet), binder on AHC sensor, His-tagged human CD3 (series from 200 nM or single 100 nM), 1:1 fit
T3 construct: also called His-tagged human CD3; human CD3 (Acro CDD-H52W1)

[4] = target: T4, CD19 (UniProt P15391 20-291, limits assumed); assay: BLI (Octet), binder on AHC sensor; antigen conditions not stated
T4 sequence (looked up): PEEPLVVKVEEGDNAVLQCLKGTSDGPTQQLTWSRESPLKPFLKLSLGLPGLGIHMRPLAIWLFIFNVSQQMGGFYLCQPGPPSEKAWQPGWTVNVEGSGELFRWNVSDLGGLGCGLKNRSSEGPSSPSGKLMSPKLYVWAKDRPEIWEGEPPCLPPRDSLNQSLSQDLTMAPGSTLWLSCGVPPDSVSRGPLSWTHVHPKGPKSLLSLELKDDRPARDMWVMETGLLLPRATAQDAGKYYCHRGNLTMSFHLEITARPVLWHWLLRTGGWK

Binder | Kd [1] | Kd [2] | Kd [3] | Kd [4]
SI-68P15 (other, penta-miniGNC; D1 αCD3** (humanized framework 1), D2 αCD19, D3 αEGFR (Fab), D4 α4-1BB, D5 αPD-L1) chain 1: EIVMTQSPSTLSASVGDRVIITCQASESISSWLAWYQQKPGKAPKLLIYEASKLASGVPSRFSGSGSGAEFTLTISSLQPDDFATYYCQGYFYFISRTYVNSFGQGTKLTVLGGGGSGGGGSGGGGSGGGGSEVQLVESGGGLVQPGGSLRLSCAASGFTISTNAMSWVRQAPGKGLEWVGVITGRDITYYASWAKGRFTISRDTSKNTVYLQMNSLRAEDTAVYYCARDGGSSAITSNNIWGQGTLVTVSSGGGGSGGGGSQVQLQQSGPGLVKPSETLSITCTVSGFSLTNYGVHWIRQAPGKGLEWLGVIWSGGNTDYNTPFTSRFTITKDNSKNQVYFKLRSVRADDTAIYYCARALTYYDYEFAYWGQGTLVTVSSASTKGPSVFPLAPSSKSTSGGTAALGCLVKDYFPEPVTVSWNSGALTSGVHTFPAVLQSSGLYSLSSVVTVPSSSLGTQTYICNVNHKPSNTKVDKRVEPKSCDKTHTCPPCPAPEAAGGPSVFLFPPKPKDTLMISRTPEVTCVVVDVSHEDPEVKFNWYVDGVEVHNAKTKPREEQYNSTYRVVSVLTVLHQDWLNGKEYKCAVSNKALPAPIEKTISKAKGQPREPQVYTLPPSRDELTKNQVSLSCAVKGFYPSDIAVEWESNGQPENNYKTTPPVLDSDGSFFLVSKLTVDKSRWQQGNVFSCSVMHEALHNHYTQKSLSLSPGGGGGSGGGGSDVVMTQSPSSVSASVGDRVTITCQASQNIRTYLSWYQQKPGKAPKLLIYAAANLASGVPSRFSGSGSGTDFTLTISDLEPGDAATYYCQSTYLGTDYVGGAFGGGTKLTVLGGGGSGGGGSGGGGSGGGGSEVQLVESGGGLVQPGGSLRLSCTASGFTISSYHMQWVRQAPGKGLEYIGTISSGGNVYYASSARGRFTISRPSSKNTVDLQMNSLRAEDTAVYYCARDSGYSDPMWGQGTLVTVSS chain 2: ENVLTQSPASLSASPGERVTITCSASSSVSYMHWYQQKPGQAPKLWIYDTSKLASGVPSRFSGSGSGNDHTLTISSMEPEDFATYYCFQGSVYPFTFGQGTKVTVLGGGGSGGGGSGGGGSGGGGSQVTLKESGPGLVQPGQTLSLTCAFSGFSLSTSGMGVGWIRQPPGKGLEWLAHIWWDDDKRYNPALKSRLTISKDTSKNQVYLQMNSLDAEDTAVYYCARMELWSYYFDYWGQGTLVTVSSGGGGSGGGGSEIVLTQSPSTLSVSPGERATFSCRASQSIGTNIHWYQQKPGKPPRLLIKYASESISGIPDRFSGSGSGTEFTLTISSVQSEDFAVYYCQQNNNWPTTFGPGTKLTVLRTVAAPSVFIFPPSDEQLKSGTASVVCLLNNFYPREAKVQWKVDNALQSGNSQESVTEQDSKDSTYSLSSTLTLSKADYEKHKVYACEVTHQGLSSPVTKSFNRGECGGDKTHTCPPCPAPEAAGGPSVFLFPPKPKDTLMISRTPEVTCVVVDVSHEDPEVKFNWYVDGVEVHNAKTKPREEQYNSTYRVVSVLTVLHQDWLNGKEYKCAVSNKALPAPIEKTISKAKGQPREPQVYTLPPSRDELTKNQVSLWCLVKGFYPSDIAVEWESNGQPENNYKTTPPVLDSDGSFFLYSKLTVDKSRWQQGNVFSCSVMHEALHNRFTQKSLSLSPGGGGGSGGGGSDIQMTQSPSTLSASVGDRVTITCQASQSISSHLNWYQQKPGKAPKLLIYKASTLASGVPSRFSGSGSGTEFTLTISSLQPDDFATYYCQQGYSWGNVDNVFGGGTKVTVLGGGGSGGGGSGGGGSGGGGSEVQLLESGGGLVQPGGSLSLSCAASGFSFSSGYDMCWVRQAPGKGLEWIACIAAGSAGITYDANWAKGRFTISRDNSKNTLYLQMNSLRAEDTAVYYCARSAFSFDYAMDLWGQGTLVTVSS | 17.1 nM | 0.4 nM | 22.4 nM | 
SI-68P16 (other, penta-miniGNC; D1 αCD3***** (humanized framework 4), D2 αCD19, D3 αEGFR (Fab), D4 α4-1BB, D5 αPD-L1) chain 1: DPVLTQSPSSLSASVGDRVTISCQSSQSVAKNNNLAWFQQKPGQAPKLLIYSASTLAAGVPSRFSGSGSGTDFTLTISSVQPEDFATYYCSARDSGNIQSFGGGTKVEIKGGGGSGGGGSGGGGSGGGGSQQLVESGGGLVKPGGSLRLSCAASGIDLSSNAIGWVRQAPGKGLEWVGVIFGSGNTYYASWAKGRFTISRSKNTVYLQMNSLRAEDTAVYYCARGGYSSDIWGQGTLVTVSSGGGGSGGGGSQVQLQQSGPGLVKPSETLSITCTVSGFSLTNYGVHWIRQAPGKGLEWLGVIWSGGNTDYNTPFTSRFTITKDNSKNQVYFKLRSVRADDTAIYYCARALTYYDYEFAYWGQGTLVTVSSASTKGPSVFPLAPSSKSTSGGTAALGCLVKDYFPEPVTVSWNSGALTSGVHTFPAVLQSSGLYSLSSVVTVPSSSLGTQTYICNVNHKPSNTKVDKRVEPKSCDKTHTCPPCPAPEAAGGPSVFLFPPKPKDTLMISRTPEVTCVVVDVSHEDPEVKFNWYVDGVEVHNAKTKPREEQYNSTYRVVSVLTVLHQDWLNGKEYKCAVSNKALPAPIEKTISKAKGQPREPQVYTLPPSRDELTKNQVSLSCAVKGFYPSDIAVEWESNGQPENNYKTTPPVLDSDGSFFLVSKLTVDKSRWQQGNVFSCSVMHEALHNHYTQKSLSLSPGGGGGSGGGGSDVVMTQSPSSVSASVGDRVTITCQASQNIRTYLSWYQQKPGKAPKLLIYAAANLASGVPSRFSGSGSGTDFTLTISDLEPGDAATYYCQSTYLGTDYVGGAFGGGTKLTVLGGGGSGGGGSGGGGSGGGGSEVQLVESGGGLVQPGGSLRLSCTASGFTISSYHMQWVRQAPGKGLEYIGTISSGGNVYYASSARGRFTISRPSSKNTVDLQMNSLRAEDTAVYYCARDSGYSDPMWGQGTLVTVSS chain 2: ENVLTQSPASLSASPGERVTITCSASSSVSYMHWYQQKPGQAPKLWIYDTSKLASGVPSRFSGSGSGNDHTLTISSMEPEDFATYYCFQGSVYPFTFGQGTKVTVLGGGGSGGGGSGGGGSGGGGSQVTLKESGPGLVQPGQTLSLTCAFSGFSLSTSGMGVGWIRQPPGKGLEWLAHIWWDDDKRYNPALKSRLTISKDTSKNQVYLQMNSLDAEDTAVYYCARMELWSYYFDYWGQGTLVTVSSGGGGSGGGGSEIVLTQSPSTLSVSPGERATFSCRASQSIGTNIHWYQQKPGKPPRLLIKYASESISGIPDRFSGSGSGTEFTLTISSVQSEDFAVYYCQQNNNWPTTFGPGTKLTVLRTVAAPSVFIFPPSDEQLKSGTASVVCLLNNFYPREAKVQWKVDNALQSGNSQESVTEQDSKDSTYSLSSTLTLSKADYEKHKVYACEVTHQGLSSPVTKSFNRGECGGDKTHTCPPCPAPEAAGGPSVFLFPPKPKDTLMISRTPEVTCVVVDVSHEDPEVKFNWYVDGVEVHNAKTKPREEQYNSTYRVVSVLTVLHQDWLNGKEYKCAVSNKALPAPIEKTISKAKGQPREPQVYTLPPSRDELTKNQVSLWCLVKGFYPSDIAVEWESNGQPENNYKTTPPVLDSDGSFFLYSKLTVDKSRWQQGNVFSCSVMHEALHNRFTQKSLSLSPGGGGGSGGGGSDIQMTQSPSTLSASVGDRVTITCQASQSISSHLNWYQQKPGKAPKLLIYKASTLASGVPSRFSGSGSGTEFTLTISSLQPDDFATYYCQQGYSWGNVDNVFGGGTKVTVLGGGGSGGGGSGGGGSGGGGSEVQLLESGGGLVQPGGSLSLSCAASGFSFSSGYDMCWVRQAPGKGLEWIACIAAGSAGITYDANWAKGRFTISRDNSKNTLYLQMNSLRAEDTAVYYCARSAFSFDYAMDLWGQGTLVTVSS | 23.3 nM | 0.5 nM |  | 2.55 nM
SI-68P13 (other, penta-miniGNC; D1 αEGFR, D2 αCD19, D3 αCD3 (Fab), D4 α4-1BB, D5 αPD-L1) chain 1: EIVLTQSPSTLSVSPGERATFSCRASQSIGTNIHWYQQKPGKPPRLLIKYASESISGIPDRFSGSGSGTEFTLTISSVQSEDFAVYYCQQNNNWPTTFGPGTKLTVLGGGGSGGGGSGGGGSGGGGSQVQLQQSGPGLVKPSETLSITCTVSGFSLTNYGVHWIRQAPGKGLEWLGVIWSGGNTDYNTPFTSRFTITKDNSKNQVYFKLRSVRADDTAIYYCARALTYYDYEFAYWGQGTLVTVSSGGGGSGGGGSEVQLVESGGGLVQPGGSLRLSCAASGFTISTNAMSWVRQAPGKGLEWIGVITGRDITYYASWAKGRFTISRDNSKNTLYLQMNSLRAEDTAVYYCARDGGSSAITSNNIWGQGTLVTVSSASTKGPSVFPLAPSSKSTSGGTAALGCLVKDYFPEPVTVSWNSGALTSGVHTFPAVLQSSGLYSLSSVVTVPSSSLGTQTYICNVNHKPSNTKVDKRVEPKSCDKTHTCPPCPAPEAAGGPSVFLFPPKPKDTLMISRTPEVTCVVVDVSHEDPEVKFNWYVDGVEVHNAKTKPREEQYNSTYRVVSVLTVLHQDWLNGKEYKCAVSNKALPAPIEKTISKAKGQPREPQVYTLPPSRDELTKNQVSLSCAVKGFYPSDIAVEWESNGQPENNYKTTPPVLDSDGSFFLVSKLTVDKSRWQQGNVFSCSVMHEALHNHYTQKSLSLSPGGGGGSGGGGSDVVMTQSPSSVSASVGDRVTITCQASQNIRTYLSWYQQKPGKAPKLLIYAAANLASGVPSRFSGSGSGTDFTLTISDLEPGDAATYYCQSTYLGTDYVGGAFGGGTKLTVLGGGGSGGGGSGGGGSGGGGSEVQLVESGGGLVQPGGSLRLSCTASGFTISSYHMQWVRQAPGKGLEYIGTISSGGNVYYASSARGRFTISRPSSKNTVDLQMNSLRAEDTAVYYCARDSGYSDPMWGQGTLVTVSS chain 2: ENVLTQSPASLSASPGERVTITCSASSSVSYMHWYQQKPGQAPKLWIYDTSKLASGVPSRFSGSGSGNDHTLTISSMEPEDFATYYCFQGSVYPFTFGQGTKVTVLGGGGSGGGGSGGGGSGGGGSQVTLKESGPGLVQPGQTLSLTCAFSGFSLSTSGMGVGWIRQPPGKGLEWLAHIWWDDDKRYNPALKSRLTISKDTSKNQVYLQMNSLDAEDTAVYYCARMELWSYYFDYWGQGTLVTVSSGGGGSGGGGSDVVMTQSPSTLSASVGDRVTINCQASESISSWLAWYQQKPGKAPKLLIYEASKLASGVPSRFSGSGSGTEFTLTISSLQPDDFATYYCQGYFYFISRTYVNSFGGGTKVEIKRTVAAPSVFIFPPSDEQLKSGTASVVCLLNNFYPREAKVQWKVDNALQSGNSQESVTEQDSKDSTYSLSSTLTLSKADYEKHKVYACEVTHQGLSSPVTKSFNRGECGGDKTHTCPPCPAPEAAGGPSVFLFPPKPKDTLMISRTPEVTCVVVDVSHEDPEVKFNWYVDGVEVHNAKTKPREEQYNSTYRVVSVLTVLHQDWLNGKEYKCAVSNKALPAPIEKTISKAKGQPREPQVYTLPPSRDELTKNQVSLWCLVKGFYPSDIAVEWESNGQPENNYKTTPPVLDSDGSFFLYSKLTVDKSRWQQGNVFSCSVMHEALHNRFTQKSLSLSPGGGGGSGGGGSDIQMTQSPSTLSASVGDRVTITCQASQSISSHLNWYQQKPGKAPKLLIYKASTLASGVPSRFSGSGSGTEFTLTISSLQPDDFATYYCQQGYSWGNVDNVFGGGTKVTVLGGGGSGGGGSGGGGSGGGGSEVQLLESGGGLVQPGGSLSLSCAASGFSFSSGYDMCWVRQAPGKGLEWIACIAAGSAGITYDANWAKGRFTISRDNSKNTLYLQMNSLRAEDTAVYYCARSAFSFDYAMDLWGQGTLVTVSS | 14.8 nM | 1.04 nM | 25.9 nM | 4.33 nM

Reference: US20230114801A1 (SYSTIMMUNE, published 2023)
